We go through one substance from publication PMC2760576.

Test [1] deals with integrin α6β1 (human (endogenous in FHCC98 and SMMC-7721)) (UniProt P05556).
Test [2] has the same target. This is another data set of the same source.
The target is the same in test [3]. The source holds these as a separate data set.
The target is the same in test [4]. The source holds these as a separate data set.

Sequence of UniProt P05556 (P05556 whole entry, looked up): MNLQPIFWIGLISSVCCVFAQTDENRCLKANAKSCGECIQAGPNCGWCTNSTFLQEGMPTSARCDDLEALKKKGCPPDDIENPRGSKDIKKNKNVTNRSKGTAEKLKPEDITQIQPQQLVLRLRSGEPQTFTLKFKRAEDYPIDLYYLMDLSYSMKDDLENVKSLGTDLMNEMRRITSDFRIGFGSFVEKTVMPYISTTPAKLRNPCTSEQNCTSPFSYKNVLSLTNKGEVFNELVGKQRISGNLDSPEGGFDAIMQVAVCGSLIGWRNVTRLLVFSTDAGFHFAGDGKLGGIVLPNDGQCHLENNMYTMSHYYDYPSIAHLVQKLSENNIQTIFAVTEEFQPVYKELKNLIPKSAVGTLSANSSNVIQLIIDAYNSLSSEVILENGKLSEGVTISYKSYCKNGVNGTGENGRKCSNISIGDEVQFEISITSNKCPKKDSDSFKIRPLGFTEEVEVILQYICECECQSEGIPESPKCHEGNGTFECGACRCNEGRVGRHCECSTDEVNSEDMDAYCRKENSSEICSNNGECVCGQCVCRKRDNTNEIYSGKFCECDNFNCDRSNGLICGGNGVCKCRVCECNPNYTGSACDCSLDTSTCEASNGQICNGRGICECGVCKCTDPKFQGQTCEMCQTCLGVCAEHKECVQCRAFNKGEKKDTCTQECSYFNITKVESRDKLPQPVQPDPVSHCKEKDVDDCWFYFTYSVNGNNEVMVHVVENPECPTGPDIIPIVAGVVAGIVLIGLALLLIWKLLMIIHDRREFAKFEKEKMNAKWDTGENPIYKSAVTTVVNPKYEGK

Turning to “HAb18G/CD147 (from UniProt P35613 22-385) (natural protein)”, in test [1], the Matrigel invasion of FHCC98 cells, reduction of invasive cell numbers versus the blank group; sncRNA + GoH3 + 3S3 is 34.9%; the Matrigel invasion of FHCC98 cells, reduction of invasive cell numbers versus the blank group; sncRNA + anti-α6 mAb GoH3 came out at 32.4%; the Matrigel invasion of FHCC98 cells, reduction of invasive cell numbers versus the blank group; sncRNA + anti-β1 mAb 3S3 is 31.1%. In test [2], the Matrigel invasion of 7721 cells, reduction of invasive cell numbers versus the blank control group; anti-α6 mAb worked out at 27.2%. In test [3], the gelatin zymography, reduction of the density of MMPs of FHCC98 cells versus the blank group; sncRNA + GoH3 + 3S3 was determined as 29.1%; the gelatin zymography, reduction of the density of MMPs of FHCC98 cells versus the blank group; sncRNA + anti-α6 mAb GoH3 was determined as 32.5%; the gelatin zymography, reduction of the density of MMPs of FHCC98 cells versus the blank group; sncRNA + anti-β1 mAb 3S3 was determined as 34.8%. In test [4], the gelatin zymography, reduction of MMP density of 7721 cells versus the blank control group; anti-α6 mAb worked out at 22.8% and the gelatin zymography, reduction of the density of MMPs of FHCC98 cells versus the blank control group; anti-α6 mAb came to 18.8%.
